{"source": "patent US10737082B2", "about": "“Methods for lymphatic delivery of active agents” (Sorrento Therapeutics, Inc., priority 2015, dated 2020)", "key": {"[1]": {"experiment": "Biodistribution of Etanercept across multiple tissue types following delivery to the skin", "format": "in vivo, rat", "settings": "delivery to the skin compared to traditional i.v., s.c., or i.d. methods, FIG. 10", "from_the_text": "The biodistribution of Etanercept across multiple tissues types following delivery was investigated."}, "[2]": {"experiment": "Localization of Etanercept to inflamed tissues in hind limb arthritic rat model", "format": "in vivo", "settings": "administered to the skin compared to subcutaneous delivery, FIG. 11A and B"}, "[3]": {"experiment": "In vivo near infrared imaging of lymphatic delivery of fluorescently tagged Etanercept after needle array administration to the skin", "design": "species or system rat", "settings": "needle array device placed dorsally on rats, FIG. 8 and 9", "method": "The ability to deliver the protein therapeutic Etanercept directly to the lymphatic system via administration to the skin was tested. Etanercept was fluorescently tagged for in vivo visualization using near infrared light as previous described, see Sevick-Muraca et al., J. Clin Invest., 124 (3), 905-914 (2014), which is incorporated by reference herein for its teachings thereof. Etanercept was administered to the skin of rats by placing a delivery device comprising an array of needles dorsally on the rats."}, "[4]": {"system": "hind limb arthritic rat model", "experiment": "Reduction of swelling of inflamed tissues measured by ankle diameter", "format": "in vivo", "settings": "same 3 mg dosage, administration to the skin compared to subcutaneous injection, FIG. 12", "method": "Furthermore, there was a 17% reduction in the swelling of these inflamed tissues after administration of the same 3 mg dosage of Etanercept as measured by ankle diameter (FIG. 12)."}, "[5]": {"experiment": "Rate of blood serum absorption of Etanercept after delivery to the skin", "format": "in vivo", "settings": "administration to the skin compared with i.v., s.c., or i.d. methods, FIG. 13"}}, "data": [{"substance": "Etanercept", "values": [{"measurement": "levels within the axillary and inguinal lymph nodes", "setting": "[1]", "value": "much higher levels"}, {"measurement": "levels localized to inflamed tissues", "setting": "[2]", "value": "higher levels"}, {"measurement": "lymphatic uptake and distribution after administration to the skin", "setting": "[3]", "value": "uptake by the lymphatic vasculature and subsequent distribution to primary and secondary lymph node tissues"}, {"measurement": "reduction in the swelling of inflamed tissues (ankle diameter)", "setting": "[4]", "value": 17, "unit": "%"}, {"measurement": "blood serum absorption rate", "setting": "[5]", "value": "approximately the same"}]}]}
